{"source": "paper PMC7201283", "about": "“Crystal structure of the NS3-like helicase from Alongshan virus” (IUCrJ, 2020)", "system": "O=c1ccn([C@@H]2O[C@H](COP(=O)(O)OP(=O)(O)OP(=O)(O)O)[C@@H](O)[C@H]2O)c(=O)[nH]1", "assay": "purified protein", "conditions": "20 mM Tris-HCl pH 8.0, 5 mM DTT, 10 mM MgCl2, 28°C, 16 nM enzyme, no RNA"}
{"substance": "ALSV NS3-Hel (Alongshan virus)", "values": [{"measurement": "Km", "result": "185 ± 19", "unit": "µM"}, {"measurement": "kcat", "result": "0.85 ± 0.02", "unit": "s⁻¹"}]}
